Among the data in patent US20240301068A1 (BEIJING HANMI PHARMACEUTICAL, published 2024) are EC50 and IC50 values, retold here.

Test [1] deals with recombinant human PD-L1 (Sino Biological Inc.) (human, UniProt Q9NZQ7 19-239). In words: ELISA, plate coated with 1 ug/mL recombinant human PD-L1, anti-mouse IgG-HRP, OD450. On the procedure:
The plate was washed 5 times with PBST, and then blocked using PBST with 1% BSA, 300 μL/well, and incubated at 25° C. for 1 hour, and then washed 5 times with PBST. […] The plate was washed 5 times with PBST. The colorimetric substrate TMB was added, 100 μL/well, and developed at room temperature for 10 minutes. 1M H₂SO₄ was added, 100 μL/well, to stop the development. The absorbance at 450 nm was read on a microplate reader.

Test [2] concerns the target T1, recombinant human PD-L1-Fc protein (human, UniProt Q9NZQ7 19-238, limits assumed).
T1 construct: Prepared by Beijing Hanmi Pharmaceutical; The GenBank number is NP_001254635.1
In words: blocking ELISA, plate coated with 1 ug/mL human PD-L1-Fc; blocked ligand biotin-labelled PD-1-Fc at 20 nM final, streptavidin-HRP, OD450. How it is done: A 96-well high-adsorption ELISA plate was coated with 1 μg/mL of the recombinant human PD-L1-Fc at 100 μL per well using carbonate buffer solution, pH=9.6 at 4° C. overnight. The plate was washed 5 times with PBST, and then blocked using PBST with 1% BSA, 300 μL/well, and incubated at 25° C. for 1 hour, and then washed 5 times with PBST. […] The Streptavidin-HRP (BD Pharmingen, catalog number 554066) diluted 1:1000 in PBST with 1% BSA was then added, 100 μL per well, and incubated at 25° C. for 1 hour. The plate was washed 5 times with PBST. The colorimetric substrate TMB was added, 100 μL/well, and developed at room temperature for 10 minutes. 1M H₂SO₄ was added, 100 μL/well, to stop the development. The absorbance at 450 nm was read on a microplate reader.

Chain of recombinant human PD-L1 (Sino Biological Inc.) (Q9NZQ7 19-239 limits assumed): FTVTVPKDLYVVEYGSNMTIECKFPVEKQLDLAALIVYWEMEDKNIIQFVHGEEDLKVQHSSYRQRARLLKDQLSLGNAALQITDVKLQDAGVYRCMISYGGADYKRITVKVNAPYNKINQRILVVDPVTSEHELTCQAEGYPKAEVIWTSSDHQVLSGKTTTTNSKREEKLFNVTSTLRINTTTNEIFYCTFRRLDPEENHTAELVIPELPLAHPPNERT
T1 sequence (Q9NZQ7 19-238 limits assumed): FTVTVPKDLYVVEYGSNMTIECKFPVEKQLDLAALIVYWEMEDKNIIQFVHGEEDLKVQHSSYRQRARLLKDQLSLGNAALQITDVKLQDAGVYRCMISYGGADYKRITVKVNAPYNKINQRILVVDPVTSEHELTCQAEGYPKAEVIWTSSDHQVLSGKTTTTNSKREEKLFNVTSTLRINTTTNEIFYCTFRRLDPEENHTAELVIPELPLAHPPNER

B1: murine anti-human PD-L1 monoclonal antibody secreted by the clone 34-35 (antibody, V domains shown)
VH: EVQLQQSGAELVKPGASVKLSCTASGFNIEDTYIHWVMQRPEQGLEWIGRIDPANGNTKYDPKFQGKATITADTSSNTAYLQLSSLTSEDTAVYYCGRGLGAWFAYWGQGTLVTVSA
VL: DIVMTQSHKVMSTSVGDRVTITCKASQDVHTAVAWIHQKPGQSPKLLIYSASNRYTGVPDRFTGSGSGTDFTFTISSVQAEDLAVYYCQQHYITPLTFGAGTTLELK
notes: also called murine monoclonal antibodies
Consider B1, for which the EC50 in test [1] turned out to be 0.494 nM. In addition, in test [2], the half-maximal inhibitory concentration (IC50) is 0.61 nM.

Usually EC50 stands for the concentration giving half of the maximal effect. The IC50 is the concentration needed to halve the response being measured.
